According to publication PMC4338043 (PLoS ONE, 2015):

B1: Staphylococcus aureus inosine-5'-monophosphate dehydrogenase (enzyme, Staphylococcus aureus strain N315, UniProt P99106 1-488, looked up)
chain: MWESKFAKESLTFDDVLLIPAQSDILPKDVDLSVQLSDKVKLNIPVISAGMDTVTESKMAIAMARQGGLGVIHKNMGVEEQADEVQKVKRSENGVISNPFFLTPEESVYEAEALMGKYRISGVPIVDNKEDRNLVGILTNRDLRFIEDFSIKIVDVMTQENLITAPVNTTLEEAEKILQKHKIEKLPLVKDGRLEGLITIKDIEKVIEFPNAAKDEHGRLLVAAAIGISKDTDIRAQKLVEAGVDVLVIDTAHGHSKGVIDQVKHIKKTYPEITLVAGNVATAEATKDLFEAGADIVKVGIGPGSICTTRVVAGVGVPQITAIYDCATEARKHGKAIIADGGIKFSGDIIKALAAGGHAVMLGSLLAGTEESPGATEIFQGRQYKVYRGMGSLGAMEKGSNDRYFQEDKAPKKFVPEGIEGRTAYKGALQDTIYQLMGGVRAGMGYTGSHDLRELREEAQFTRMGPAGLAESHPHNIQITKESPNYSF
notes: also called IMPDHsa; class II IMPDH
B2: Burkholderia thailandensis inosine-5'-monophosphate dehydrogenase (enzyme, Burkholderia thailandensis strain E264, UniProt Q2SWW9 1-486, looked up)
chain: MRLIQKALTFDDVLLVPAFSDVLPRDTSLKTQLTRHISLNMPLVSAAMDTVTEGRLAIAMAQQGGVGIVHKNLTPVEQAREVAKVKRFESGVVRDPITVPPSMKVRDVIALSRQHGISGFPVLEGPKLVGIVTNRDLRFETRLDEPVKSIMTPRERLVTVAEGTPLAEAKALMHSHRLERVLVVNDAFELRGLMTVKDITKQTEHPEACKDEHGKLRVGAAVGVGADNEERVELLVQAGVDVIVVDTAHGHSKGVLERVRWVKQNFPKVEVIGGNIATAAAAKALVEYGADAVKVGIGPGSICTTRIVAGVGVPQISAIANVSDALRGTGVPCIADGGIRFSGDVSKALAAGANAVMMGSMFAGTEEAPGDVFLYQGRQYKSYRGMGSVGAMKDGAADRYFQDNSANIDKLVPEGIEGRVAYKGSVNAIIFQLIGGVRASMGYCGCKTIAEMHEKAEFVEITAAGMRESHVHDVQITKEAPNYHVD
notes: also called IMPDHbt; class II IMPDH
B3: Legionella pneumophila subsp. pneumophila inosine-5'-monophosphate dehydrogenase (enzyme)
chain: MPLSIVQQSLTFDDVLLVPAHSTILPKDVSLKTKLTRAIHLNMPLISAAMDTVTEARLAIALAQEGGLGIIHKNMSIADQAEEVRRVKKFESGMVKDPISVTPDLTVKELLAVMTKYNFSGVPVVDGKHLVGIVTSRDIRFETNMNLTVAQVMTPKGRLVTVKEGASREEVRSLLHKHRIEKLLVVNENFELRGLITVKDIQKAKDNPYACKDSFEQLRVGAAVGVGEGTDERVAALVESGVDVIVVDTAHGHSQGVLNRVKWIKKNYPDVQVIGGNIATAAAARDLYEAGADAVKVGIGPGSICTTRIVTGVGIPQISAIANVAQELKGIIPVIADGGIRFSGDVCKALAAGADTVMLGSMFAGTEESPGEIELYQGRTYKNYRGMGSIGAMSLAQGSSDRYFQDASLGTEKLVPEGIEGRVPYKGPVQTIIHQLLGGLRSCMGYTGCATIEELHSKTEFVQVTNAGMRESHVHDVSITKQAPNYQVDN
notes: also called IMPDHlpp; class I IMPDH
B4: Neisseria meningitidis inosine-5'-monophosphate dehydrogenase (enzyme, Neisseria meningitidis strain FAM18, UniProt Q9JZB5 1-487, looked up)
chain: MRIVEKAYTFDDVLLVPAHSTVLPRDVKLQTKLTREITLNLPLLSAAMDTVTEARLAISMAQEGGIGIIHKNMPPEMQARAVSKVKRHESGVVKDPVTVAPTTLIREVLEMRAQRKRKMSGLPVVENGKVVGIVTNRDLRFENRVDLPVSAIMTPRERLVTVPEGTSIDEARELMHTHKVERVLVLNEKDELKGLITVKDILKTTEFPNANKDSEGRLRVGAAVGTGGDTEERVKALVEAGVDVIVVDTAHGHSQGVIDRVRWVKETYPHIQVIGGNIATAKAALDLVAAGADAVKVGIGPGSICTTRIVAGVGVPQLTAIHNVAEALKGTGVPLIADGGIRFSGDIAKALAAGAYSVMLGGMFAGTEEAPGEIELYQGRSYKSYRGMGSLGAMSQGSADRYFQDKTDSTDKYVPEGIEGRVPYKGPIVNIIHQLTGGLRSSMGYLGCANIAEMHEKAEFVEITSAGMSESHVHDVQITKEAPNYHR
notes: also called IMPDHnm; class I IMPDH
B5: Pseudomonas aeruginosa inosine-5'-monophosphate dehydrogenase (enzyme, UniProt Q9HXM5 1-489, looked up)
chain: MLRISQEALTFDDVLLIPGYSEVLPKDVSLKTRLTRGIELNIPLVSAAMDTVTEARLAIAMAQEGGIGIIHKNMGIEQQAAEVRKVKKHETAIVRDPVTVTPSTKIIELLQMAREYGFSGFPVVEQGELVGIVTGRDLRVKPNAGDTVAAIMTPKDKLVTAREGTPLEEMKAKLYENRIEKMLVVDENFYLRGLVTFRDIEKAKTYPLASKDEQGRLRVGAAVGTGADTGERVAALVAAGVDVVVVDTAHGHSKGVIERVRWVKQTFPDVQVIGGNIATAEAAKALAEAGADAVKVGIGPGSICTTRIVAGVGVPQISAIANVAAALEGTGVPLIADGGIRFSGDLAKAMVAGAYCVMMGSMFAGTEEAPGEIELFQGRSYKSYRGMGSLGAMSGSQGSSDRYFQDASAGAEKLVPEGIEGRVPYKGALSAIVHQLMGGLRAAMGYTGSADIQQMRTQPQFVRITGAGMAESHVHDVQITKEAPNYRVG
notes: also called IMPDHpa; class I IMPDH

Molecular target: the molecule itself
Test: AUC
With B1 the “stoichiometry N” value was 4. In the case of B2, the “stoichiometry N” value is reported as 4. In the case of B3, the “stoichiometry N” value is reported as 8. With B4 the “stoichiometry N” value was 8.

Molecular target: the molecule itself
Test: AUC
Remark: another data set of the same source
In the case of B1, the “stoichiometry N” value is reported as 8. For B5, the “stoichiometry N” value was 8. With B2 the “stoichiometry N” value was 8.

Molecular target: the molecule itself
Test: SEC
B1 was tested, and the “stoichiometry N” value was about 4. In the case of B5, the “stoichiometry N” value is reported as about 8. For B2, the “stoichiometry N” value was about 4. In the case of B3, the “stoichiometry N” value is reported as about 8. For B4, the “stoichiometry N” value was about 8.
